We go through 1 protein from paper PMC2932714 (PLoS ONE, 2010).

This data set concerns the molecule itself. The data set is described as follows: thioflavin T fluorescence + atomi.

B1: Ure2 (yeast prion protein Ure2, Saccharomyces cerevisiae) (natural protein, UniProt P23202 1-354, looked up)
chain: MMNNNGNQVSNLSNALRQVNIGNRNSNTTTDQSNINFEFSTGVNNNNNNNSSSNNNNVQNNNSGRNGSQNNDNENNIKNTLEQHRQQQQAFSDMSHVEYSRITKFFQEQPLEGYTLFSHRSAPNGFKVAIVLSELGFHYNTIFLDFNLGEHRAPEFVSVNPNARVPALIDHGMDNLSIWESGAILLHLVNKYYKETGNPLLWSDDLADQSQINAWLFFQTSGHAPMIGQALHFRYFHSQKIASAVERYTDEVRRVYGVVEMALAERREALVMELDTENAAAYSAGTTPMSQSRFFDYPVWLVGDKLTIADLAFVPWNNVVDRIGINIKIEFPEVYKWTKHMMRRPAVIKALRGE
notes: Ure2, Saccharomyces cerevisiae; the introduction describes it as a 354-amino acid homodimeric protein; It starts as the native dimer and assembles into protofibrils and mature fibrils on incubation at 4°C; also called WT Ure2; native Ure2; source: Escherichia coli, purified under native conditions
For B1, the binding result was “binds”.
